The target of experiment [1] is dipeptidyl peptidase IV (DPP4), the MERS-CoV receptor, His-tagged (human) (UniProt P27487).
The target is the same in experiment [2]. In words: ELISA, spike coated, His-tagged hDPP4 titrated. Background: ELISA stands for enzyme-linked immunosorbent assay.

A value given as a limit tells only on which side of the number the result lay.

Chain of dipeptidyl peptidase IV (DPP4), the MERS-CoV receptor, His-tagged (human) (P27487 29-766 limits assumed): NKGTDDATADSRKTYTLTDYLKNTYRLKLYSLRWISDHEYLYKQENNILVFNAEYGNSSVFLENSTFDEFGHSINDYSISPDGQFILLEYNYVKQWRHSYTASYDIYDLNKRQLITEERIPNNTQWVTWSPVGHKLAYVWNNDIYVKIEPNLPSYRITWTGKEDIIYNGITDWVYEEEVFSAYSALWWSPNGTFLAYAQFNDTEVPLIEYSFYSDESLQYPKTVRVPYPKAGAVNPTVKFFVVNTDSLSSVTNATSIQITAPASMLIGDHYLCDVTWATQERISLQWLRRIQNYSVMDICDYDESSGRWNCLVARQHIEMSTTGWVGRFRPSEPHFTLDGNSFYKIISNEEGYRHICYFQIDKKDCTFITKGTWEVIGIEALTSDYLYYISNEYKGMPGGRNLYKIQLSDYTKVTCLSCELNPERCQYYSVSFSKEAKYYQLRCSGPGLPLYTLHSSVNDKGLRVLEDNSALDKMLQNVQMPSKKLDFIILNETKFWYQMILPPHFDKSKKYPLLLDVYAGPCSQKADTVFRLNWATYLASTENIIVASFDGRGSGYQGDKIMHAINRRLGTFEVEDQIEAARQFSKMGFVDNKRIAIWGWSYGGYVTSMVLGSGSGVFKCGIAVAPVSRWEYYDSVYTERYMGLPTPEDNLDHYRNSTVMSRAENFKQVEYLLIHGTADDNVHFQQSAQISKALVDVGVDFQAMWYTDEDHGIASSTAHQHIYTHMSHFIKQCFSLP

As to “wild-type BV2361 protein (SEQ ID NO: 2), native SARS-CoV-2 Spike (S) polypeptide (from UniProt P0DTC2 14-1273) (other; other documents disagree on this pair)”, the IC50 (as a rule, the midpoint of a concentration-inhibition curve) in experiment [1] was above 5 µg/mL. In experiment [2], the concentration giving a half-maximal response (EC50) (in general, the concentration that produces a half-maximal response) is above 5 µg/mL.
